The record followed here is patent US20240360201A1.

The target in one experiment is FcγRIIB-Acro (human) (UniProt P31994). Briefly: SPR (Biacore T200), antibody captured on protein A sensor chip, Fc receptor as analyte; analyte range 3200nm-25nm. Background: In SPR one partner is held on a chip, and binding of the other changes the refractive index at the surface.
Experiment [1] addresses FcγRIIIA-F176-Sino (human) (UniProt P08637). As to the kind of experiment: SPR Biacore T200; binder captured on protein A chip, Fc receptor as analyte.

By Kd is commonly meant the free concentration of one partner at which half of the binding sites on the other are occupied at equilibrium, for simple one-to-one binding. Read a low Kd as a tighter complex. As for PDL1-avelumab (antibody), the Kd with FcγRIIB-Acro (human) was 3330 nM; in experiment [1] it was 563 nM.
